Positions count from the first letter of the chain named.

One series concerns the target T1, Cyno PRLR (Macaca fascicularis, UniProt A0A2K5WXK1).
T1 construct: antibodies against human and cynomolgus PRLR ECD
T1 sequence (A0A2K5WXK1 25-234): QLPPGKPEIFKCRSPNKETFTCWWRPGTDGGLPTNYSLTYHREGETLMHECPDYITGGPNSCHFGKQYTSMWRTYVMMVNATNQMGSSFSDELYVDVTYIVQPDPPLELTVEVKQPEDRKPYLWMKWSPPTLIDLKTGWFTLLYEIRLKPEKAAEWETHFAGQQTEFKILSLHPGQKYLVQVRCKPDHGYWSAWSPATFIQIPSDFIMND
The series is described as follows: Cross species affinity analysis on covalently immobilized antibodies. Type of series: binding, cynomolgus. The note with it: Table 11, Cyno; covalently immobilized antibody; in 1/s. How it is done: (§1) In order to compare rat and mouse cross reactivity using covalently immobilized antibodies, a CM4 chip was coupled with he.06.642-2 and he.06.275-4 antibodies via standard EDC-NHS amine coupling chemistries according to the recommended protocol from BIACORE® Inc. The PRLR ECD injections were performed at five concentrations in a three fold titration series starting at 111 nM and going down to 1.37 nM. Regeneration was performed with Glycine pH3.0. The affinity of all of the HE variants of XHA.06.642 and XHA.06.275 are very similar to the affinity of the parental chimeric antibody. […] Antibody he.06.275-4 binds to Cyno PRLR with 5 fold weaker affinity than Human PRLR.

The target of the next series is T2, human PRLR ECD (Homo sapiens, UniProt P16471).
T2 construct: His6 (C); made in house; host or cells: Tn5 insect cells, baculovirus
T2 sequence (P16471 25-234): T1 sequence (A0A2K5WXK1 25-234) with V76I, T110A, M125I, T158I, I207T
The series is described as follows: Biacore kinetic titration, antibody captured on Protein A/G. The note with it: Table 9, Human PRLR ECD; unit not given. It counts as binding. How it is done:
(§2) Affinity of the chimerized and HUMAN ENGINEERED™ antibodies determined by Biacore analysis. Briefly, a CM5 sensor chip (Biacore) immobilized with Protein A/G (Pierce) via NHS/EDC was used to capture approximately 600 RU of antibody on the chip surface. Five concentrations of PRLR ECD beginning at 5 ug/mL (185 nM) and serially diluted at 5× dilution to 0.3 nM were injected from lowest to highest concentration in the kinetic titration injection mode, and 15 minutes of dissociation data was collected. The experiments were double-referenced, i.e. an adjacent flow cell response was subtracted automatically, and the response from a buffer injection experiment was subtracted from the experimental data set. Kinetic and derived parameters (ka, kd and KD) were determined by fitting to a 1:1 Langmuir model using BiaEval software customized to the kinetic titration injection mode. Affinity measurements of both chimeric and all HUMAN ENGINEERED™ antibodies against human and cynomolgus PRLR ECD are summarized in Table 9 and Table 10.

The next series deals with T3, cynomolgus PRLR ECD (Macaca fascicularis, UniProt A0A2K5WXK1).
T3 construct: antibodies against human and cynomolgus PRLR ECD
T3 sequence (A0A2K5WXK1 25-234): T1 sequence (A0A2K5WXK1 25-234)
Described as above. Type of series: binding. The note with it: Table 9, Cyno PRLR ECD; unit not given. How it is done:
as §2

In another series the target is T4, Rat PRLR (Rattus norvegicus, UniProt P05710).
T4 sequence (P05710 20-229 limits assumed): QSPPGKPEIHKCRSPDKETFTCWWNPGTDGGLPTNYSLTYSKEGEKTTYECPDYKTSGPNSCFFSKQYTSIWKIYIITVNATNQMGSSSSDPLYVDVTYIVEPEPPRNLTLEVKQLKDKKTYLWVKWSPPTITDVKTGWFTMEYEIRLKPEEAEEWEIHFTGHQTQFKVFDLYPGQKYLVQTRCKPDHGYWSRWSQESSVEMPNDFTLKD
The series is described as follows: Cross species affinity analysis on covalently immobilized antibodies. It counts as binding. The note with it: for binding to Rat PRLR (in words): compared with human PRLR. How it is done: as §1

In the next series the target is T5, Human PRLR (Homo sapiens, UniProt P16471).
T5 construct: His6 (C); made in house; host or cells: Tn5 insect cells, baculovirus
T5 sequence (P16471 25-234): T1 sequence (A0A2K5WXK1 25-234) with V76I, T110A, M125I, T158I, I207T
Described as above. Type of series: binding. The note with it: Table 11, Human; covalently immobilized antibody; in 1/s. How it is done: as §1

The next series has as its target T6, Mouse PRLR (Mus musculus, UniProt Q08501).
T6 sequence (Q08501 20-229 limits assumed): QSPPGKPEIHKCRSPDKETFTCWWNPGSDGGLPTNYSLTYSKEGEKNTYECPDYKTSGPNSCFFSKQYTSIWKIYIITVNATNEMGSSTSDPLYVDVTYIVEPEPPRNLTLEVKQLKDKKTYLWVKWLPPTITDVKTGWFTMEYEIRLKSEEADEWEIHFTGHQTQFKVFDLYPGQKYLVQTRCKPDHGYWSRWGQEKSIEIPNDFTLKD
The description is as above. It counts as binding. The note with it: for binding to Mouse PRLR (in words): compared with human PRLR. How it is done:
as §1

A short description of series [1]: Solubility in PBS and aggregation state by size exclusion chromatography. It counts as physicochemical. How it is done: Elution of the major peak was by […] glycine pH 3.5. Pooled material was dialyzed into PBS and concentrated in centrifugal concentrators with a nominal molecular weight cut-off of 30 kD. Final purities were >95% and overall yields were approximately 60%. The final pools were assayed for endotoxin using an Endosafe PTS LAL unit (Charles River) or the QCL-1000 Chromogenic LAL Endpoint Assay (Lonza), and the results were <0.05 EU/mg (below the limit of detection) for all the antibodies. Aggregation state of the chimeric antibody he.06.642-2 was determined to be monomeric by SEC on a Superdex 200 10/300 GL column (GE Healthcare).

Series [2] has as its system PRL-induced phospho-PRLR and phospho-Stat5. Kind of series: PRL-induced PRLR and STAT5 phosphorylation in T47D cells by Western blot. It counts as cell-based, human. How it is done:
Cells were pre-treated with 1 ug/ml mAb prior to 30 min stimulation with 50 ng/ml PRL. Lysates were analyzed for the presence of phospho-PRLR using antibodies specific for phosphotyrosine residues 546 and 611 of the PRLR.
T47D cells were incubated with 1 or 10 ug/ml mAb, then treated with or without PRL (50 ng/ml) for an additional 30 min.
The ability of selected antibodies to inhibit PRL-induced phosphorylation of STAT5 and AKT was determined as follows. Cells were seeded overnight in 6 well plates at a density of 3×10^5 cells/ml in phenol red-free RPMI/10% FBS. The following day, media was replaced with serum-free RPMI for 30 min. In some experiments, anti-PRLR or non-specific control antibodies were incubated with cells during this serum starvation period. 50 ng/ml PRL was then added to wells for 30 min, after which cells were rinsed once in PBS and lysed in a buffer consisting of 50 mM Tris-HCl, pH7.5, 150 mM NaCl, 1 mM EDTA, 1% NP-40, 1 mM Na3OV4, 50 mM NaF, 0.25% deoxycholate and protease inhibitors. Tubes were spun down at 14,000 rpm in a refrigerated microfuge and lysates were quantitated using BCA reagents. 30 μg of whole cell lysate was separated by 10% SDS-PAGE and proteins were detected using phospho-specific antibodies for STAT5A/B (Y694/Y699, Upstate) or PRLR (Y546/Y611, in-house) and ECL. Equal protein loading was determined by staining with antibodies specific for total STAT5 (BD) or PRLR (Zymed) or AKT (Cell Signalling). Results of a representative assay of effect of a PRLR-specific antibody on PRLR intracellular phosphorylation are shown in FIG. 6.
Chimeric mAbs were analyzed for their ability to inhibit the proliferation and survival of BaF/PRLR cells [FIG. 11]. […] In order to assess the PRLR signal-neutralizing capability of the chimeric antibodies in a human breast cancer model, T47D cells were treated with 1 ug/ml mAb for 30 min prior to PRL stimulation. At the same time, additional cell samples were incubated with antibody alone to examine any potential agonism gained through chimerization of the antibody candidates.
Antibodies were assessed in target modulation and cell proliferation assays. FIG. 16 depicts the effect of 2 concentrations of chXHA.06.642 and HUMAN ENGINEERED™ antibodies he.06.642-1 and he.06.642-2, on PRL-induced Stat5 phosphorylation in T47D cells. […] Similar results were found for chXHA.06.275 variants.

B1: he.06.275-4: HUMAN-ENGINEERED antibody from XHA.06.275; variable regions SEQ ID NO: 92 and SEQ ID NO: 94 by order of listing (antibody, V domains shown)
VH: QVQLQESGPGLVKPSQTLSLTCTVSGYSITSDYAWNWIRQFPGKGLEWMGYISYSGSTSYNPSLKSRITISRDTSKNQFSLQLNSVTAADTAVYFCARDYGYVFDYWGQGTTLTVSS
VL: DVQITQSPSSLSASPGDRITLTCRASKNIYKYLAWYQEKPGKANKLLIYSGSTLHSGIPSRFSGSGSGTDFTLTISSLQPEDFAMYYCQQHNDYPYTFGQGTKLEIK
B1 came in with a koff with Cyno PRLR of 8.2E−04. For the same molecule, in the series with human PRLR ECD, the ka is recorded as 6.2E+05 and the kd amounted to 3.2E−04. In the series with cynomolgus PRLR ECD, the ka turned out to be 3.6E+05 and the kd is 6.0E−04. In addition, the “binding to Rat PRLR (in words)” value with Rat PRLR is “does not bind effectively”. For the same molecule, the koff in the series with Human PRLR is recorded as 4.5E−04. Also, in the series with Mouse PRLR, the “Murine KD/Human KD” value was “Murine KD/Human KD = 13,548” and the “binding to Mouse PRLR (in words)” value is “does not bind effectively”.

B2: he.06.642-2: HUMAN-ENGINEERED antibody from XHA.06.642; variable regions SEQ ID NO: 88 and SEQ ID NO: 90 by order of listing (antibody, V domains shown)
VH: EVQLVESGGGLVQPGGSLRLSCAVSGFTFSSYGMSWVRQAPGKGLEWVATVSSGGTYTYYPDSVKGRFTISRDNSKNTLYLQMNSLRAEDTAVYYCARHRGNYYATYYYAMDYWGQGTLVTVSS
VL: DIVLTQSPDSLAVSLGERATINCKASKSVSTSGYTYMHWYQQKPGQPPKLLIYLASNRESGVPDRFSGSGSGTDFTLTISPVQAEDVATYYCQHSGELPPSFGQGTKLEIK
In the case of B2, the “aggregation state by size exclusion chromatography” value in series [1] is listed as “monomeric”. Also, the koff with Cyno PRLR came to 6.0E−03; in the series with Rat PRLR (Table 11, Rat, covalently immobilized antibody, in 1/s) it was 1.4E−04; with Human PRLR, 9.1E−04; with Mouse PRLR (Table 11, Murin, covalently immobilized antibody, in 1/s) it was 3.1E−04. Moreover, the figures for the ka with human PRLR ECD and with cynomolgus PRLR ECD were 1.7E+05 and 1.8E+05, respectively. The kd in the series with human PRLR ECD stood at 5.3E−04; with cynomolgus PRLR ECD, 8.3E−03. In addition, the “Rat KD/Human KD” value in the series with Rat PRLR is given as “Rat KD/Human KD = 0.75”. In addition, the “binding to Rat PRLR (in words)” value in the series with Rat PRLR is recorded as “equivalent affinity”. In addition, the “Murine KD/Human KD” value with Mouse PRLR is recorded as “Murine KD/Human KD = 1”. Moreover, the “binding to Mouse PRLR (in words)” value with Mouse PRLR is listed as “equivalent affinity”. The “agonism: induction of PRLR signaling by antibody alone” value in series [2] (T47D cells treated with mAb alone) is “neither antibody displayed any agonistic activity”. The “block of PRL-induced signaling (phospho-PRLR, phospho-Stat5)” value in series [2] (T47D cells, 1 or 10 ug/ml mAb, then PRL 50 ng/ml 30 min) is recorded as “complete p-Stat5 signal abrogation”.

The values are drawn from patent US9005614B2, “PRLR-specific antibody and uses thereof” (Novartis AG, priority 2006, dated 2015).
